Article PMC9482650, “Quantitative fragmentomics allow affinity mapping of interactomes” (Nature Communications, 2022)

T1: MPP1, Q00013
T1 sequence (Q00013 66-162, limits assumed, looked up): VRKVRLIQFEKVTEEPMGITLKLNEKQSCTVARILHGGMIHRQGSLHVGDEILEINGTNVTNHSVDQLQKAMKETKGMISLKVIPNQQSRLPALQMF

T2: SHANK3, Q9BYB0
T2 sequence (Q9BYB0 641-750, limits assumed, looked up): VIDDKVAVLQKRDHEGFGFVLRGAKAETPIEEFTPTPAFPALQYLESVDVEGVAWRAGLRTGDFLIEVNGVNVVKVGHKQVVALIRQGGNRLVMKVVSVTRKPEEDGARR

T3: MLLT4, P55196
T3 sequence (P55196 1002-1103, limits assumed, looked up): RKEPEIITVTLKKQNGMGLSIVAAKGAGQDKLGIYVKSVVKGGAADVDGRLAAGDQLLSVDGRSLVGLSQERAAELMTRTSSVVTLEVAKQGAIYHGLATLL

T4: PDZD7_2, Q9H5P4
T4 sequence (Q9H5P4 205-303, limits assumed, looked up): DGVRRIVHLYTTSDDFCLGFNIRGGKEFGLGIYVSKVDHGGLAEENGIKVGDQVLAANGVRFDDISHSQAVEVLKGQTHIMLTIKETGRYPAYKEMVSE

T5: LNX2_4, Q8N448
T5 sequence (Q8N448 595-690, limits assumed, looked up): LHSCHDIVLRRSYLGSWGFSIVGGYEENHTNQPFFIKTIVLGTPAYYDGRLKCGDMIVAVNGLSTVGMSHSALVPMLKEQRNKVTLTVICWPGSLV

T6: USH1C_2, Q9Y6N9
T6 sequence (Q9Y6N9 206-303, limits assumed, looked up): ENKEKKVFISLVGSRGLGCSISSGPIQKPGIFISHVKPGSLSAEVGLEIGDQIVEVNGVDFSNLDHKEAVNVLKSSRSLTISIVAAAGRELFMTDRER

T7: SHROOM4, Q9ULL8
T7 sequence (Q9ULL8 5-102, limits assumed, looked up): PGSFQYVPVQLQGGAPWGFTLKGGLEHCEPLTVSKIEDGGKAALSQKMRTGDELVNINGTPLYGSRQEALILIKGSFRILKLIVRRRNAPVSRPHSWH

T8: PTPN13_5, Q12923
T8 sequence (Q12923 1877-1975, limits assumed, looked up): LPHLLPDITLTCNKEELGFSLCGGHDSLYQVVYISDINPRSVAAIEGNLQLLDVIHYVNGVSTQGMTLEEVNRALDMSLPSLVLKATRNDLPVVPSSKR

T9: SHROOM3, Q8TF72
T9 sequence (Q8TF72 20-120, limits assumed, looked up): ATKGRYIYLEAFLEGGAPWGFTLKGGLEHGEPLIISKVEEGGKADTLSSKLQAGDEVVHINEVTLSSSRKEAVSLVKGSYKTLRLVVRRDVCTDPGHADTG

T10: APBA3_2, O96018
T10 sequence (O96018 480-570, limits assumed, looked up): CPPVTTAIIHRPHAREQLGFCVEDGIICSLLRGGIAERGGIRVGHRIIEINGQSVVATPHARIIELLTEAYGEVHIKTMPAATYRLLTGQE

T11: MPDZ_6, O75970
T11 sequence (O75970 1003-1099, limits assumed, looked up): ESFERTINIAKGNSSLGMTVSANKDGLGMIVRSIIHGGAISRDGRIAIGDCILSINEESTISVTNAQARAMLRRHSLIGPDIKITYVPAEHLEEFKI

T12: PDLIM3, Q53GG5
T12 sequence (Q53GG5 1-94, limits assumed, looked up): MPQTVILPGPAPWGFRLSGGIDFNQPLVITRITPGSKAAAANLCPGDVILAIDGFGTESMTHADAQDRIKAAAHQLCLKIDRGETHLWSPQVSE

T13: NHERF3_2, Q5T2W1
T13 sequence (Q5T2W1 129-225, limits assumed, looked up): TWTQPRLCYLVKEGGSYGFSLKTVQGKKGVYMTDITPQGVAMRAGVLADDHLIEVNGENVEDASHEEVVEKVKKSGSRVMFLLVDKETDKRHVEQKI

T14: CNKSR1, Q969H4
T14 sequence (Q969H4 191-295, limits assumed, looked up): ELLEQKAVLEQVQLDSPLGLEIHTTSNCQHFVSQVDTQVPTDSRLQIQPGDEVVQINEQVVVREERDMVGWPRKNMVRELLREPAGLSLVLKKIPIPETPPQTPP


Assays:
Experiment in all cases: holdup assay
Parameters in all cases: key: below the threshold = too weak to quantify, mostly under pKd 3.1 to 4
Conditions in all cases: plain residues with an end cap or a label only (N-terminal biotin on a linker: ttds)
MPP1, Q00013 = target: T1, MPP1, Q00013
DLG2_1, Q15700 = target: DLG2_1, Q15700
SHANK3, Q9BYB0 = target: T2, SHANK3, Q9BYB0
PARD3B_3, Q8TEW8 = target: PARD3B_3, Q8TEW8
MLLT4, P55196 = target: T3, MLLT4, P55196
PDZD7_2, Q9H5P4 = target: T4, PDZD7_2, Q9H5P4
DLG5_2, Q8TDM6 = target: DLG5_2, Q8TDM6
PTPN13_2, Q12923 = target: PTPN13_2, Q12923
LNX2_4, Q8N448 = target: T5, LNX2_4, Q8N448
USH1C_2, Q9Y6N9 = target: T6, USH1C_2, Q9Y6N9
SHROOM4, Q9ULL8 = target: T7, SHROOM4, Q9ULL8
PTPN13_5, Q12923 = target: T8, PTPN13_5, Q12923
SHROOM3, Q8TF72 = target: T9, SHROOM3, Q8TF72
APBA3_2, O96018 = target: T10, APBA3_2, O96018
PDLIM4, P50479 = target: PDLIM4, P50479
PARD3_1, Q8TEW0 = target: PARD3_1, Q8TEW0
MAGI3_3, Q5TCQ9 = target: MAGI3_3, Q5TCQ9
MAGIX, Q9H6Y5 = target: MAGIX, Q9H6Y5
MPDZ_6, O75970 = target: T11, MPDZ_6, O75970
PDLIM3, Q53GG5 = target: T12, PDLIM3, Q53GG5
MAGI1_3, Q96QZ7 = target: MAGI1_3, Q96QZ7
NHERF3_2, Q5T2W1 = target: T13, NHERF3_2, Q5T2W1
CNKSR1, Q969H4 = target: T14, CNKSR1, Q969H4

Sequence of DLG5_2, Q8TDM6 (Q8TDM6 714-800): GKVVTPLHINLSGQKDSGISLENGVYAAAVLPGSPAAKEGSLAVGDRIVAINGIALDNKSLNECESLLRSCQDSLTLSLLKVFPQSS
Sequence of PARD3_1, Q8TEW0 (Q8TEW0 264-372): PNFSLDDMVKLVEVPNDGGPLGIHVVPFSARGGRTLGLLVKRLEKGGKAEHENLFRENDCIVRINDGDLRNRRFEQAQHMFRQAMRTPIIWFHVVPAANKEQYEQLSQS
Sequence of PDLIM4, P50479 (P50479 1-83): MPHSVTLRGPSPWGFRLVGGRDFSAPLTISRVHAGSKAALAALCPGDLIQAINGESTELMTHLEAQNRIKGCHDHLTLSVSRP
Sequence of MAGI1_3, Q96QZ7 (Q96QZ7 638-725): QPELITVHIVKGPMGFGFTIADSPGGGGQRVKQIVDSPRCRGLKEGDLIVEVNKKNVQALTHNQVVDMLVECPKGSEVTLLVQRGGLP
Sequence of MAGI3_3, Q5TCQ9 (Q5TCQ9 572-655): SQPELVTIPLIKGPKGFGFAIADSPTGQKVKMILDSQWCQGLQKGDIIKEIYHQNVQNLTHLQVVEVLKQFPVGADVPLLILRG
Sequence of MAGIX, Q9H6Y5 (Q9H6Y5 118-211): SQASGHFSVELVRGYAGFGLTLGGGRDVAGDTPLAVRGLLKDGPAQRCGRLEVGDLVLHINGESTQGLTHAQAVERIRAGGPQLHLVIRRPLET
Sequence of PARD3B_3, Q8TEW8 (Q8TEW8 490-594): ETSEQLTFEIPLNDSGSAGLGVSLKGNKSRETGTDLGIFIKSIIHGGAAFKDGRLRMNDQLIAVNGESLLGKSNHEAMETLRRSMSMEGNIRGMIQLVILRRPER
Sequence of PTPN13_2, Q12923 (Q12923 1363-1462): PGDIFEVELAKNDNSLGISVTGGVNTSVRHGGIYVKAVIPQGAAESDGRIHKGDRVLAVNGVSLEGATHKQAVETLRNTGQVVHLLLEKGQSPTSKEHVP

Binder	pKd (MPP1, Q00013)	pKd (DLG2_1, Q15700)	pKd (SHANK3, Q9BYB0)	pKd (PARD3B_3, Q8TEW8)	pKd (MLLT4, P55196)	pKd (PDZD7_2, Q9H5P4)	pKd (DLG5_2, Q8TDM6)	pKd (PTPN13_2, Q12923)	pKd (LNX2_4, Q8N448)	pKd (USH1C_2, Q9Y6N9)	pKd (SHROOM4, Q9ULL8)	pKd (PTPN13_5, Q12923)	pKd (SHROOM3, Q8TF72)	pKd (APBA3_2, O96018)	pKd (PDLIM4, P50479)	pKd (PARD3_1, Q8TEW0)	pKd (MAGI3_3, Q5TCQ9)	pKd (MAGIX, Q9H6Y5)	pKd (MPDZ_6, O75970)	pKd (PDLIM3, Q53GG5)	further results
QSARYRDTEL [TJP2, Q9UDY2]	below the threshold	below the threshold	below the threshold	below the threshold	below the threshold	below the threshold	below the threshold	below the threshold	below the threshold	below the threshold	below the threshold	below the threshold	below the threshold	below the threshold	below the threshold	below the threshold	below the threshold	below the threshold	below the threshold	below the threshold	pKd (MAGI1_3, Q96QZ7): below the threshold; pKd (NHERF3_2, Q5T2W1): below the threshold; pKd (CNKSR1, Q969H4): below the threshold
SSRTRRETQL [HPV16-E6, P03126]	below the threshold	4.92	below the threshold	below the threshold	below the threshold	below the threshold	4.12	below the threshold	below the threshold	3.92	below the threshold	below the threshold	below the threshold	below the threshold	below the threshold	below the threshold	below the threshold	below the threshold	below the threshold	3.88	pKd (MAGI1_3, Q96QZ7): 4.16; pKd (NHERF3_2, Q5T2W1): below the threshold; pKd (CNKSR1, Q969H4): below the threshold
SVWLRKETRV [CYSLTR2, Q9NS75]	6.03	5.26	below the threshold	below the threshold	below the threshold	below the threshold	4.71	below the threshold	below the threshold	below the threshold	below the threshold	below the threshold	below the threshold	below the threshold	below the threshold	below the threshold	below the threshold	below the threshold	below the threshold	below the threshold	pKd (MAGI1_3, Q96QZ7): 5.09; pKd (NHERF3_2, Q5T2W1): below the threshold; pKd (CNKSR1, Q969H4): below the threshold
PKTPPTDTSV [KIR3DL3, Q8N743]	below the threshold	below the threshold	below the threshold	below the threshold	below the threshold	below the threshold	below the threshold	below the threshold	below the threshold	below the threshold	below the threshold	below the threshold	below the threshold	below the threshold	below the threshold	below the threshold	below the threshold	below the threshold	below the threshold	below the threshold	pKd (MAGI1_3, Q96QZ7): below the threshold; pKd (NHERF3_2, Q5T2W1): below the threshold; pKd (CNKSR1, Q969H4): below the threshold
SRPQRTQTQV [HPV67-E6, A4U7F2]	5.26	4.25	below the threshold	below the threshold	below the threshold	below the threshold	4.16	below the threshold	below the threshold	below the threshold	below the threshold	below the threshold	below the threshold	below the threshold	below the threshold	below the threshold	below the threshold	below the threshold	below the threshold	below the threshold	pKd (MAGI1_3, Q96QZ7): 4.12; pKd (NHERF3_2, Q5T2W1): below the threshold; pKd (CNKSR1, Q969H4): below the threshold
RSLEEEESQL [GRASP, Q7Z6J2]	below the threshold	below the threshold	5.24	below the threshold	below the threshold	below the threshold	below the threshold	below the threshold	below the threshold	below the threshold	below the threshold	below the threshold	below the threshold	4.18	below the threshold	below the threshold	below the threshold	below the threshold	below the threshold	below the threshold	pKd (MAGI1_3, Q96QZ7): below the threshold; pKd (NHERF3_2, Q5T2W1): below the threshold; pKd (CNKSR1, Q969H4): below the threshold
